In this experiment the target is Toxoplasma gondii ABCB7-like (TgABCB7L), TGGT1_269000 (Toxoplasma gondii). The experiment can be described thus: native gel or EMSA; BN-PAGE (4-16% Bis-Tris) of ABCB7L-HA parasites solubilised in 1% βDDM on ice, immunoblot with anti-HA; bovine mitochondrial membranes as size marker. In general terms: In EMSA bound probe runs differently from free probe, usually more slowly.

We go through one substance from publication PMC11481526.

The term stoichiometry N denotes a count of units in the complex or per binding partner.

“Toxoplasma gondii ABCB7-like (TgABCB7L), TGGT1_269000 (natural protein)” gave a stoichiometry N of 2.
